For assay [1], the target named is T1, human DR4 with death domain deletion on ExpiCHO-S cells (human). In words: flow cytometry, ExpiCHO-S cells expressing human DR4, n = 2. On the procedure:
(§1) Binding of BisG1-FAPα-FERL/DR4-FERR, BisG1-DR4-FEAL/b12-FEAR and IgG1-DR4-FERR to DR4 of various species commonly used for nonclinical toxicology studies was assessed by flow cytometry using ExpiCHO-S cells transiently expressing DR4 from different animal species. In contrast to other species, rodents only express one DR which has highest homology with human DR5. Therefore, ExpiCHO-S cells transiently expressing rat and mouse DR protein were used instead. All DR constructs lack the intracellular DD to avoid apoptosis of transfected cells upon DR(4) activation. IgG1-b12 was used as negative control.
(In general: Flow cytometry measures light scatter and fluorescence of single cells or particles in a stream.)

The target of assay [2] is T1, human DR4 with death domain deletion on …. The assay is described as follows: flow cytometry, ExpiCHO-S cells expressing human DR4, n = 1. On the procedure: as §1
Assay [3] has the same target. In words: flow cytometry, ExpiCHO-S cells expressing human DR4, average ± SEM.
Assay [4] has as its target T2, cynomolgus monkey DR4 with death domain deletion on ExpiCHO-S cells (cynomolgus monkey (Macaca fascicularis)).
T2 construct: also called cynomolgus DR4
T2 chain: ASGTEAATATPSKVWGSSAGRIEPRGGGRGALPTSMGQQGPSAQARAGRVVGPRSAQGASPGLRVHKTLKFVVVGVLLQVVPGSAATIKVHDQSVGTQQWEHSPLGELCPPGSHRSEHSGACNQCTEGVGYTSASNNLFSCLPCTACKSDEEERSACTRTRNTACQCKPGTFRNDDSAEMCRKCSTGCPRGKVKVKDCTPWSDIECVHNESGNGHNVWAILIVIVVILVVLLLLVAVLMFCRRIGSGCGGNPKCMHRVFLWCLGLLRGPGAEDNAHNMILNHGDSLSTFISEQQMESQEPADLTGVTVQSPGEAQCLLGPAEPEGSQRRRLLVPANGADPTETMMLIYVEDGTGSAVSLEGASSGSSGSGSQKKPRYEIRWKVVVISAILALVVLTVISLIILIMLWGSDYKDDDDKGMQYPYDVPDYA
In words: flow cytometry on ExpiCHO-S cells transiently expressing cynomolgus monkey DR4 (death domain deleted), gMFI PE.

In assay [5] the target is T3, human FAPα (Fibroblast activation protein alpha), cell surface expressed (human, UniProt Q12884 1-760).
T3 construct: Endogenous on human lung fibroblasts and CAFs
T3 sequence: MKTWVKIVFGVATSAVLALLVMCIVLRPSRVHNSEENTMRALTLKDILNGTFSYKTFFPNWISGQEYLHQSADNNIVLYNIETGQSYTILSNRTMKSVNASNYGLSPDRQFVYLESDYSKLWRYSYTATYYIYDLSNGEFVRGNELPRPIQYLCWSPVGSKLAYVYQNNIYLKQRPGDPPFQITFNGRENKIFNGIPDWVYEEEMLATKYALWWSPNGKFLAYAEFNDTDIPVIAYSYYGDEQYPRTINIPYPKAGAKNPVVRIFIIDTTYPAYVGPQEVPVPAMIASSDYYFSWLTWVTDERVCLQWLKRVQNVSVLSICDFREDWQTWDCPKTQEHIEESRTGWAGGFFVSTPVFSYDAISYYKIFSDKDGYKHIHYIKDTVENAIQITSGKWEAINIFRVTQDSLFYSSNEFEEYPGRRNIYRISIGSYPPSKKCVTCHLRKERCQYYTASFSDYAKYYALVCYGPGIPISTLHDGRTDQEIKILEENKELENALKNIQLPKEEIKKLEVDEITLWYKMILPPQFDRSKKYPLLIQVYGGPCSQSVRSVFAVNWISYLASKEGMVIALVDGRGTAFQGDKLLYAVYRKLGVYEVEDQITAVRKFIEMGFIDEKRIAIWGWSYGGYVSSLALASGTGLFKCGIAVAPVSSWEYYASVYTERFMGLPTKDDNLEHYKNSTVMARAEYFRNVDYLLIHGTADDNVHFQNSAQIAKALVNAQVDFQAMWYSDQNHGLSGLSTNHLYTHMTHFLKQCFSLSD
In words: flow cytometry, human lung fibroblasts, n = 2. The procedure:
Human lung fibroblasts and CAFs (50,000 cells/well) were seeded in 96-Well round bottom plates (Greiner Bio-one, Cat #650101). Antibody dilutions were prepared using fluorescence-activated cell sorting (FACS) buffer, consisting of phosphate buffer saline (PBS, Lonza, Cat #BE17-517Q)+1% Bovine Serum Albumin (BSA, Roche, Cat #10735086001)+0.02% Sodium Azide (Bio-World, Cat #41920044-3). Plates were centrifuged, supernatant was removed, cells were resuspended in 50 μL of human Fc Block (BD, Cat #564220, diluted 1:100 in FACS buffer) and 50 μL of viability stain TO-PRO-3 Iodide (Thermo Fisher, Cat #T3605, diluted 1: 25,000 in FACS buffer), and incubated for 15 min at 4° C. Plates were washed three times with FACS buffer. Plates were centrifuged, supernatant was removed, cells were resuspended in 50 μL of antibody dilutions (concentration range 90-0.0005 μg/mL, three-fold dilution steps using FACS buffer) of BisG1-FAPα-FERL/DR4-FERR, BisG1-FAPα-FERL/b12-FERR, BisG1-b12-FERL/b12-FERR (top six concentrations only for CAFs culture) or IgG1-FAPα-FERL (top four concentrations only for CAFs culture) and incubated for 30 min at 4° C. Cells were washed three times with FACS buffer and resuspended in 50 μL of Fluorescein isothiocyanate (FITC)-labeled polyclonal antibody goat anti-mouse IgG1 (Jackson Immuno Research, Cat #109-096-097, diluted 1:100 in FACS buffer). […] Antibody binding to viable cells (TO-PRO-3 negative) was analyzed by flow cytometry on a FACSCelesta™ (BD biosciences) and data were processed using FlowJo_v10.8.1 (FlowJo LLC). Geomean fluorescence intensity, gMFI, was determined and visualized using GraphPad Prism. Binding curves were analyzed using nonlinear regression analysis. […]
(§2) Binding of FAPα-targeting monoclonal antibody clones, IgG1-FAPα-FEAL and IgG1-FAP5-FEAL, and bispecific antibodies carrying a binding arm derived from the two FAPα-binding clones (BisG1-FAPα-FEAL/b12-FEAR and BisG1-FAP5-FEAL/b12-FEAR) to human lung fibroblasts, which endogenously express FAPα, was compared and analyzed by flow cytometry.

Assay [6] addresses T3, human FAPα (Fibroblast activation …). In words: flow cytometry, human lung fibroblasts, n = 1. The procedure: Human lung fibroblasts and CAFs (50,000 cells/well) were seeded in 96-Well round bottom plates (Greiner Bio-one, Cat #650101). Antibody dilutions were prepared using fluorescence-activated cell sorting (FACS) buffer, consisting of phosphate buffer saline (PBS, Lonza, Cat #BE17-517Q)+1% Bovine Serum Albumin (BSA, Roche, Cat #10735086001)+0.02% Sodium Azide (Bio-World, Cat #41920044-3). Plates were centrifuged, supernatant was removed, cells were resuspended in 50 μL of human Fc Block (BD, Cat #564220, diluted 1:100 in FACS buffer) and 50 μL of viability stain TO-PRO-3 Iodide (Thermo Fisher, Cat #T3605, diluted 1: 25,000 in FACS buffer), and incubated for 15 min at 4° C. Plates were washed three times with FACS buffer. Plates were centrifuged, supernatant was removed, cells were resuspended in 50 μL of antibody dilutions (concentration range 90-0.0005 μg/mL, three-fold dilution steps using FACS buffer) of BisG1-FAPα-FERL/DR4-FERR, BisG1-FAPα-FERL/b12-FERR, BisG1-b12-FERL/b12-FERR (top six concentrations only for CAFs culture) or IgG1-FAPα-FERL (top four concentrations only for CAFs culture) and incubated for 30 min at 4° C. Cells were washed three times with FACS buffer and resuspended in 50 μL of Fluorescein isothiocyanate (FITC)-labeled polyclonal antibody goat anti-mouse IgG1 (Jackson Immuno Research, Cat #109-096-097, diluted 1:100 in FACS buffer). After 30 min incubation at 4° C., cells were washed twice with FACS buffer and resuspended in FACS buffer. Antibody binding to viable cells (TO-PRO-3 negative) was analyzed by flow cytometry on a FACSCelesta™ (BD biosciences) and data were processed using FlowJo_v10.8.1 (FlowJo LLC). Geomean fluorescence intensity, gMFI, was determined and visualized using GraphPad Prism. Binding curves were analyzed using nonlinear regression analysis. The concentration (pg/mL) at which 50% of the maximal effect was observed (EC₅₀) was derived from the fitted curves.
as §2

B1: BisG1-DR4-FEAL/b12-FEAR (bispecific antibody, human IgG1, kappa, lambda)
heavy 1: QVQLQESGPGLVKPSGTLSLTCAVSGGSISSYSWWSWIRQPPGKGLEWIGELYHSGSTNYNPSLKSRVTISVDKSKNQFSLKLRSVTAADTAVYYCVRGVATIDYWGQGTLVTVSSASTKGPSVFPLAPSSKSTSGGTAALGCLVKDYFPEPVTVSWNSGALTSGVHTFPAVLQSSGLYSLSSVVTVPSSSLGTQTYICNVNHKPSNTKVDKRVEPKSCDKTHTCPPCPAPEFEGGPSVFLFPPKPKDTLMISRTPEVTCVVVAVSHEDPEVKFNWYVDGVEVHNAKTKPREEQYNSTYRVVSVLTVLHQDWLNGKEYKCKVSNKALPAPIEKTISKAKGQPREPQVYTLPPSREEMTKNQVSLTCLVKGFYPSDIAVEWESNGQPENNYKTTPPVLDSDGSFLLYSKLTVDKSRWQQGNVFSCSVMHEALHNHYTQKSLSLSPG
light 1: QSALTQPPSASGSPGQSVTISCTGTSSDVGGYNFVSWYQQDPGKAPKLLIYEVTKRPSGVPDRFSGSKSGNTASLTVSGLQAEDEADYYCSSYAGSNNVMFGGGTKLTVLGQPKAAPSVTLFPPSSEELQANKATLVCLISDFYPGAVTVAWKADSSPVKAGVETTTPSKQSNNKYAASSYLSLTPEQWKSHRSYSCQVTHEGSTVEKTVAPTECS
heavy 2: QVQLVQSGAEVKKPGASVKVSCQASGYRFSNFVIHWVRQAPGQRFEWMGWINPYNGNKEFSAKFQDRVTFTADTSANTAYMELRSLRSADTAVYYCARVGPYSWDDSPQDNYYMDVWGKGTTVIVSSASTKGPSVFPLAPSSKSTSGGTAALGCLVKDYFPEPVTVSWNSGALTSGVHTFPAVLQSSGLYSLSSVVTVPSSSLGTQTYICNVNHKPSNTKVDKRVEPKSCDKTHTCPPCPAPEFEGGPSVFLFPPKPKDTLMISRTPEVTCVVVAVSHEDPEVKFNWYVDGVEVHNAKTKPREEQYNSTYRVVSVLTVLHQDWLNGKEYKCKVSNKALPAPIEKTISKAKGQPREPQVYTLPPSREEMTKNQVSLTCLVKGFYPSDIAVEWESNGQPENNYKTTPPVLDSDGSFFLYSRLTVDKSRWQQGNVFSCSVMHEALHNHYTQKSLSLSPG
light 2: EIVLTQSPGTLSLSPGERATFSCRSSHSIRSRRVAWYQHKPGQAPRLVIHGVSNRASGISDRFSGSGSGTDFTLTITRVEPEDFALYYCQVYGASSYTFGQGTKLERKRTVAAPSVFIFPPSDEQLKSGTASVVCLLNNFYPREAKVQWKVDNALQSGNSQESVTEQDSKDSTYSLSSTLTLSKADYEKHKVYACEVTHQGLSSPVTKSFNRGEC
notes: Fab-arm exchange of IgG1-DR4-FEAL and IgG1-b12-FEAR
For orientation: EC50 means the concentration needed to bring the measured effect to its halfway point. Broadly, the EC50 (read off the curve) is the concentration that produces a half-maximal response. For the molecule B1, the EC50 is 1.23 µg/mL in assay [1], 1.02 µg/mL in assay [2] and 1.12 µg/mL in assay [3]. The “EC50 (read off the curve)” value in assay [4] is about 1 µg/mL.

B2: BisG1-FAP5-FEAL/b12-FEAR (bispecific antibody, human IgG1, kappa)
heavy 1: QVQLQQSGAELARPGASVNLSCLASGYTFTNNGINWLKQRTGQGLEWIGEIYPRSTNTLYNEKFKGKATLTADRSSNTAYMELRSLTSEDSAVYFCARTLTAPFAFWGQGTLVTVSSASTKGPSVFPLAPSSKSTSGGTAALGCLVKDYFPEPVTVSWNSGALTSGVHTFPAVLQSSGLYSLSSVVTVPSSSLGTQTYICNVNHKPSNTKVDKRVEPKSCDKTHTCPPCPAPEFEGGPSVFLFPPKPKDTLMISRTPEVTCVVVAVSHEDPEVKFNWYVDGVEVHNAKTKPREEQYNSTYRVVSVLTVLHQDWLNGKEYKCKVSNKALPAPIEKTISKAKGQPREPQVYTLPPSREEMTKNQVSLTCLVKGFYPSDIAVEWESNGQPENNYKTTPPVLDSDGSFLLYSKLTVDKSRWQQGNVFSCSVMHEALHNHYTQKSLSLSPG
light 1: QIVLTQSPAIMSASPGELVTMTCSASSGVNFMHWYQQLSGTSPKRWIFDTSKLASGVPARFSGSGSGTSYSLTISSMEAEDAATYYCQQWSFNPPTFGGGTKLEIKRTVAAPSVFIFPPSDEQLKSGTASVVCLLNNFYPREAKVQWKVDNALQSGNSQESVTEQDSKDSTYSLSSTLTLSKADYEKHKVYACEVTHQGLSSPVTKSFNRGEC
heavy 2: QVQLVQSGAEVKKPGASVKVSCQASGYRFSNFVIHWVRQAPGQRFEWMGWINPYNGNKEFSAKFQDRVTFTADTSANTAYMELRSLRSADTAVYYCARVGPYSWDDSPQDNYYMDVWGKGTTVIVSSASTKGPSVFPLAPSSKSTSGGTAALGCLVKDYFPEPVTVSWNSGALTSGVHTFPAVLQSSGLYSLSSVVTVPSSSLGTQTYICNVNHKPSNTKVDKRVEPKSCDKTHTCPPCPAPEFEGGPSVFLFPPKPKDTLMISRTPEVTCVVVAVSHEDPEVKFNWYVDGVEVHNAKTKPREEQYNSTYRVVSVLTVLHQDWLNGKEYKCKVSNKALPAPIEKTISKAKGQPREPQVYTLPPSREEMTKNQVSLTCLVKGFYPSDIAVEWESNGQPENNYKTTPPVLDSDGSFFLYSRLTVDKSRWQQGNVFSCSVMHEALHNHYTQKSLSLSPG
light 2: EIVLTQSPGTLSLSPGERATFSCRSSHSIRSRRVAWYQHKPGQAPRLVIHGVSNRASGISDRFSGSGSGTDFTLTITRVEPEDFALYYCQVYGASSYTFGQGTKLERKRTVAAPSVFIFPPSDEQLKSGTASVVCLLNNFYPREAKVQWKVDNALQSGNSQESVTEQDSKDSTYSLSSTLTLSKADYEKHKVYACEVTHQGLSSPVTKSFNRGEC
notes: Fab-arm exchange of IgG1-FAP5-FEAL and IgG1-b12-FEAR
On to B2, for which the figures for the EC50 in assay [5] and in assay [6] were 0.62 µg/mL and 0.58 µg/mL, respectively.

Values taken from patent US20250002610A1 (Genmab, published 2025).
